Values belong to the substance of their own block, whether it stands above or below them.
Key:
[1] = biological target: FMAL-labeled RLC-exchanged full-length cardiac myosin (porcine (ventricles) | human) (UniProt P79293); assay: FRET or BRET
[2] = biological target: FMAL-labeled F-actin (rabbit) (UniProt P68135); assay: FRET or BRET
[3] = biological target: FMAL-labeled F-actin (rabbit) (UniProt P68135); assay: co-sedimentation
[4] = biological target: FMAL-labeled F-actin (rabbit skeletal muscle) (rabbit) (UniProt P68135); assay: FRET or BRET

- FLT-FRET at 2.5 μM relative to WT (relative to WT) [1]: 1.7
Substance: C0-C2^(cys249, E334K), PKA-phosphorylated (domain or fragment)

- FLT-FRET at 2.5 μM relative to WT (relative to WT) [2]: 1.1
Substance: C0-C2^(cys249, L349R) (domain or fragment)

- FLT-FRET at 2.5 μM relative to WT (relative to WT) [2]: 1.31
Substance: C0-C2^(cys249, L349R), PKA-phosphorylated (domain or fragment)

- FLT-FRET at 2.5 μM relative to WT (relative to WT) [1]: 2
Substance: C0-C2^(cys330, E334K), PKA-phosphorylated (domain or fragment)

- FLT-FRET at 2.5 μM relative to WT (relative to WT) [1]: 1.6
Substance: C0-C2^(cys330, L349R) (domain or fragment)

- FLT-FRET at 2.5 μM relative to WT (relative to WT) [2]: 1.1
Substance: C0-C2^(cys330, R282W) (domain or fragment)

- EC50 [1]: 9 µM
- EC50 [2]: 1.4 µM
Substance: C0-C2^cys85 (domain or fragment)

- fold change of EC50 upon phosphorylation [2]: 2.9 fold
- reduction of FRET at 2.5 μM upon phosphorylation [2]: 52%
- fold increase of EC50 upon phosphorylation [3]: 1.1 fold
Substance: C0-C2^cys85, PKA-phosphorylated (domain or fragment)

- EC50 [1]: 3.4 µM
- EC50 [2]: 3 µM
Substance: C0-C2^cys249 (domain or fragment)

- fold change of EC50 upon phosphorylation [2]: 1.7 fold
- reduction of FRET at 2.5 μM upon phosphorylation [2]: 52%
- fold increase of EC50 upon phosphorylation [3]: 1.6 fold
Substance: C0-C2^cys249, PKA-phosphorylated (domain or fragment)

- EC50 [1]: 6.9 µM
- EC50 [2]: 6.3 µM
Substance: C0-C2^cys330 (domain or fragment)

- EC50 [4]: 1.31 µM
Substance: TMR-C0-C2^(cys249, L352P) (domain or fragment)

- EC50 [4]: 2.12 µM
Substance: TMR-C0-C2^cys249 (domain or fragment)
